Reference: doi:10.1101/2024.07.10.602929 (bioRxiv, 2024)
Where no end group is shown, it is not given here. [ ]: non-standard residue; d: D form. The star is where a group is joined. Biotin = O=C1N[C@H]2[C@H](CS[C@H]2CCCCC(=O)*)N1; pY = N[C@@H](Cc1ccc(OP(=O)(O)O)cc1)C(=O)O

B1: EGFR LIR1 peptide phosphorylated at Y1092 (peptide, UniProt P00533 1076-1099, looked up)
peptide: Biotin-ALTEDSIDDTFLPVPE[pY]INQSVPK
notes: EGFR residues 1076-1099 (LIR1); also called phosphorylated (p) EGFR LIR1 variant pY1092; source: synthetic peptide, bought: CASLO (≥95% purity)
B2: EGFR LIR2 peptide (EGFR residues 1190–1210), N-terminally biotinylated (peptide, UniProt P00533 1190-1210, looked up)
peptide: Biotin-STAENAEYLRVAPQSSEFIGA
notes: Epidermal growth factor receptor (EGFR), residues 1190-1210, core LIR YLRV at 1197-1200; source: synthetic peptide, bought: CASLO (≥95% purity)
B3: PCM1 LIR peptide (pericentriolar material 1 protein residues 1954-1968), N-terminally biotinylated (peptide, UniProt Q15154 1954-1968, looked up)
peptide: Biotin-ISQKSDEEDFVKVED
notes: Pericentriolar material 1 protein (PCM1), LIR motif, residues 1954-1968; source: synthetic peptide, bought: CASLO (≥95% purity)
B4: EGFR LIR2 peptide phosphorylated at Y1197 (peptide, UniProt P00533 1190-1210, looked up)
peptide: Biotin-STAENAE[pY]LRVAPQSSEFIGA
notes: EGFR residues 1190-1210 (LIR2); also called LIR2 pY1197; source: synthetic peptide, bought: CASLO (≥95% purity)
B5: EGFR LIR1 peptide (EGFR residues 1076–1099), N-terminally biotinylated (peptide)
peptide: Biotin-ALTEDSIDDTFLPVPEYINQSVPK
notes: Epidermal growth factor receptor (EGFR), residues 1076-1099 of the regulatory C-terminal domain, core LIR FLPV at 1086-1089; also called EGFR LIR1_(1076–1099); source: synthetic peptide, bought: CASLO (≥95% purity)

Experiments:
Test in all cases: BLI; Octet Red 96; N-terminally biotinylated peptides immobilised on High Precision Streptavidin (SAX) biosensors; purified hATG8 proteins as analyte in increasing concentrations; steady-state evaluation, one-site binding model; individual measurements unless stated otherwise
Conditions in all cases: both partners purified
[1] = target: T1, LC3A (human, UniProt Q9H492 1-121)
T1 construct: LC3A, human, full-length (unprocessed) version; also called MAP1LC3 (microtubule-associated protein 1 light chain 3) A; source: E. coli BL21(DE3), pGEX-4-T2, purified (Glutathione Sepharose 4B, thrombin cleavage, SEC)

[2] = target: T2, GABARAPL2 (human, UniProt P60520 1-117)
T2 construct: GABARAPL2, human, full-length (unprocessed) version; source: E. coli BL21(DE3), pGEX-4-T2, purified (Glutathione Sepharose 4B, thrombin cleavage, SEC)
T2 sequence (P60520 whole entry): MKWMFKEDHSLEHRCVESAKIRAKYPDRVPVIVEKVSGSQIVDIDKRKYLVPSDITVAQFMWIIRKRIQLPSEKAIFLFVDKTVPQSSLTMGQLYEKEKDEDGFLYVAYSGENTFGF

[3] = target: T3, GABARAPL1 (human, UniProt Q9H0R8 1-117)
T3 construct: GABARAPL1, human, full-length (unprocessed) version; source: E. coli BL21(DE3), pGEX-4-T2, purified (Glutathione Sepharose 4B, thrombin cleavage, SEC)

[4] = target: T4, GABARAP Y49A/L50A (human, UniProt O95166 1-117, Y49A | L50A)
T4 construct: GABARAP, human, full-length (unprocessed) version with Y49A and L50A; source: E. coli BL21(DE3), pGEX-4-T2, purified (Glutathione Sepharose 4B, thrombin cleavage, SEC)
T4 sequence (O95166 whole entry Y49A/L50A): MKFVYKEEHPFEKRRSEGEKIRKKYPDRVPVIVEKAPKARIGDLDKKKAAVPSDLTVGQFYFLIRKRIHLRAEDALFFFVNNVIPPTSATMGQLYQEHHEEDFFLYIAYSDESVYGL

[5] = target: T5, GABARAP (γ-aminobutyric acid type A receptor-associated protein) (human, UniProt O95166 1-117)
T5 construct: GABARAP, human, full-length (unprocessed) version; For the NMR titrations the same construct was made 15N-labelled in M9 minimal medium; also called 15N-GABARAP; free GABARAP; source: E. coli BL21(DE3), pGEX-4-T2, purified (Glutathione Sepharose 4B, thrombin cleavage, SEC)
T5 sequence (O95166 whole entry): as the sequence (O95166 whole entry Y49A/L50A) above, with A49Y, A50L counted along it

[6] = target: T6, GABARAPL1 Y49A/L50A (human, UniProt Q9H0R8 1-117, Y49A | L50A)
T6 construct: GABARAPL1, human, full-length (unprocessed) version with Y49A and L50A; everywhere else Y49A/L50A; also called GABARAPL1_(Y49A/L59A); source: E. coli BL21(DE3), pGEX-4-T2, purified (Glutathione Sepharose 4B, thrombin cleavage, SEC)
T6 sequence (Q9H0R8 whole entry Y49A/L50A): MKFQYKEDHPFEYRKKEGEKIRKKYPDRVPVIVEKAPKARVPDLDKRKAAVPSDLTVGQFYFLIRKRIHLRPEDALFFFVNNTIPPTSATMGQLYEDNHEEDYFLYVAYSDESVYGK

Binder | binding result [1] | binding result [2] | binding result [3] | also measured
B1 | binds | binds |  | 
B2 | binds | binds | binds | 
B3 |  |  |  | Kd [4]: 99.2 µM; Kd [5]: 4.2 µM; Kd [6]: 273 µM
B4 | binds | binds | binds | binding result [5]: binds
B5 |  |  |  | Kd [3]: 29.7 µM
